41 sequences from the nanobody polyreactivity screen of Harvey et al. (2022) can be followed below.

The data set is described as follows: yeast display, Sf9 membrane polyspecificity reagent, FACS + sequencing; frameworks hold sequencing errors. The essentials:
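Using colony PCR, genes from sorted yeast display clones were amplified, then sequenced on MiSeq at 2 × 250 and filtered by CDR length. The clones had been stained with 10% biotinylated, detergent-solubilized Sf9 membrane reagent for 1 hour at 4 °C and sorted by FACS into low and high (top ~1%) gates on anti-HA and streptavidin fluorescence. Polyreactivity labels come from the gate of origin.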
Consider “QVQLVESGGGLVQAGGSLRLSCAASGFNFQGNAMGWYIQAPGNERELVAAISSDGSTYYADSVKGRFTISRDNAKNTVELQMYSLKPEDTAVYYCAAEWWYYYPGYIITSYDYWGQGTQVTVSS”, for which the “polyreactivity (PSR sort gate)” value is on record as “low polyreactivity”.

As to “QVQLVESGGGLVQAGGSLRLSCAASGRIIYAYAMGWYRQAPGKERELVAAITIGGNTNYADSVKGRFTISRDNAKNTVYLQMNSLKPEDTAVYYCNARNYYYPWRGYHVVGSNDLGYWGQGTQVTVSS”, the “polyreactivity (PSR sort gate)” value is given as “low polyreactivity”.

As for “QVQLVESGGGLVQAGGSLRLSCAASGSIIDINALGWYRQAPRKERDLVAAISLSAGSTYYADSVKGRFSISRDNAKNTVYLQMNSLKPEDTAVYYGAAERGGRGTLRNRYDYWGQGTQVTVSS”, the “polyreactivity (PSR sort gate)” value is listed as “low polyreactivity”.

As to “QVQLVESGVGLVQAGGSHRLSCSASGSIIEENSMGWYRQAPGKERELVAAITIGGRTNYADSVKGRFTISRDNAKNTVYLQMNSLKPEDTAVYYCAADLSSNKYFRFWTRYYYWGQGTQVTVSS”, the “polyreactivity (PSR sort gate)” value is reported as “low polyreactivity”.

For “QVQLVESGGGLVQAGGSLRLSCAASGRISTYNAMGWYIQAPGKERELVASITGGGSTNYADSVKGRFTISRDNAKNTVYLQMNSLKPEDTAVYYCNAKARGQRGYRKIYGYDYWGQGTQVTVSS”, the “polyreactivity (PSR sort gate)” value is reported as “high polyreactivity”.

As to “QVQLVESGGGLVQAGGSLRLSCAASGRTFARYAMGRYRQAPGKERELVAAITRGSGSTYYADSVKGRFTISRDNAKNTVYLQMNSLKTEDTAVYFCAKRSRGLKFDYWGQGTQVTVSS”, the “polyreactivity (PSR sort gate)” value is recorded as “high polyreactivity”.

In the case of “QVQLQESGGGLVQAGGSLRLSCAASGTITVLYKMGWFRQAPGKEREFVASINYGTRTYYADSVKGRFTVSRDSAKNTVYLQMNSLKPEDTAVYYCAAAYRWQDVYRYWGQGTQVTVSS”, the “polyreactivity (PSR sort gate)” value is reported as “low polyreactivity”.

“QVQLVESGGGLVQAGGSLRLSCAASGSISYQNAMGWYRQAPGKERELVAAITSSGGNTYYADSVKGRFTISRDNAKNTVYLQMNSLKPEDTAVYYCNAVLYYDSYLYYYWGQGTQVTVSS”: the “polyreactivity (PSR sort gate)” value was “low polyreactivity”.

Consider “QVQLVESGGGLVQAGGSLRLRCAASGFTFRLYAMGGDRQAPGKERELVATITQRGGRTYYADSVKGRFTISRDNAKNTVYLQMNSLKPEDTAVYYCAATWSLTTGTKFDYWGQGTQVTVSS”, for which the “polyreactivity (PSR sort gate)” value is given as “high polyreactivity”.

“QVQLVESGGGLVQAGGSLRLSCAASGSTWYYAMGWYRQAPGKERELVATISSGSRTYYADSVKGRFTISRDNAKNTVYLQMNSLKPEDTAVYYCAARRRRFYYQYYRYDYWGQGTQVTVSS”: the “polyreactivity (PSR sort gate)” value is recorded as “high polyreactivity”.

As to “QVQLVESGGGLVQAGGSLRLSCAASGFTFVAYAMGWYRQAPGKERELVAAIRRTDTSTYYADSVKGRFTISRDNAKNTVYLQINSLKPEDTAVYYCAADYWRRTYLGFDYWGQGTQVTVSS”, the “polyreactivity (PSR sort gate)” value is “low polyreactivity”.

For “QVQLVESGGGLVQAGGSLRLSCAASGSTVVYYAMGWYRQAPGKERELVAAITSGGSTNYADSVKGRFTISRDNAKITVYLQMNSLKPEDTAVYYCNAEPETTIDYWGQGTQVTVSS”, the “polyreactivity (PSR sort gate)” value is on record as “low polyreactivity”.

As for “QVQLVESGGGLVQAGGSLRLSCAASGSTFVYYAMVWYRQAPGKERELVAAITGSVDSTYYADSVKGRFTISRDNAKNTVYLQMNSVKPEDTAVYYCAADTYSTYWGQGTQVTVSS”, the “polyreactivity (PSR sort gate)” value is “low polyreactivity”.

As for “QVQLVESGGGLVQAGGSLRLSCAASGRTFESNAMGWYRQAPGKERELVAGITSGGITNYADSVKGRFTISRDNAKNTVYLQMISLKPEDTAVYYCEFYYWGQGTQVTVSS”, the “polyreactivity (PSR sort gate)” value is “low polyreactivity”.

Turning to “QVQLVESGGGLVQAGGSLRLSCAASGFIFGTNAMGWYRQAPGKERELVASISSTGGSTYYADSVKGRFTISRDNAKNTVYLQMNSLKPEDTAVYYFSADPYPEYIRYLPGVDYWGQGTQVTVSS”, the “polyreactivity (PSR sort gate)” value was “low polyreactivity”.

In the case of “QVQLVESGGGLVQAGGSLRLTCAASGRTFRSYTMGWYRQAPGKERELVAAISGSGGRTYYADYVKGRFTISRDNAKNNVYLQMNILKPEDTADYYCNKGFTDYHYYYWGQGTQVTVSS”, the “polyreactivity (PSR sort gate)” value is “high polyreactivity”.

Turning to “QVQLVETGGGLVQAGGSLRISCAASGFIFPSYAMGWYRQAPGKERELVAAITSGGRTYYADSVKGLFTISRDNAKKTVYLQMNSLKPEDYAVYYCAAKSHSKTGTRYYYCGQGTQVTVSS”, the “polyreactivity (PSR sort gate)” value was “high polyreactivity”.

With “QVQIVESGGGLVQAGGSLRLSCAASGSIFQGNPMGWYRQAPWKEREFVAAISWSGDSTYYADSVKGRFTISRDNAKYSVYLQMNSLKTEDTAVYYCGADPWDIYRRLSPGDHDYWGQCTQVTVSS”, the “polyreactivity (PSR sort gate)” value is recorded as “low polyreactivity”.

“QVQLVESGGGLVQAGGSLRLSCAASGYIFFFYAMGWYRQAPGKERELVASITYRGGSTYYADSVKGRFTISRDNAKNTVYLQMNSLKPEDTAVYYCNVDGGGPLGPQGFPFDYWGQGTQVTVSS”: the “polyreactivity (PSR sort gate)” value is given as “low polyreactivity”.

As for “QVQLVESGGGLVQAGGSLRLSCAASGIILPWNAMGWYRQAPGKERELVAAISWSGTSTYYADSVQGRFTISRDNAKNTVYLQMNSLKPEDTAVYYCAAAYWWSWRYDYWGQGTQVTVSS”, the “polyreactivity (PSR sort gate)” value was “low polyreactivity”.

In the case of “QVQLVESGGGLVQAGGSLRLSCAASGRILPYNVMGWYRQAPGKEWEFVAAITGSGGDTYYADSVKGRFTISRDTAKNTVYLQMNSLKPEDTAVYYCAAAPYIGGSFGQTPGSGYWGQGTQVTVSS”, the “polyreactivity (PSR sort gate)” value is recorded as “low polyreactivity”.

With “QVQLVESGGGLVQAGGSLRLSCAASGSIIVPYAMGWYRQAPGKERELVAAISSRGGRTYYADSVKGRFTISRDNAKNTVYLQMNSLKPEDTAVYYCNKTAGSHIPRLEYWGQGTQVTVSS”, the “polyreactivity (PSR sort gate)” value was “low polyreactivity”.

In the case of “QVQLVESGGGLVQAGGSLSLSCAASGRIFSYNDMGWYRQAPGKERELVAAITSNDGSTYYADSVKGRFTISRDNAKNTVYLQMNSLKPVDSAVSYCTADVLFLSSYGYDYWGQGTQVTVSS”, the “polyreactivity (PSR sort gate)” value is “low polyreactivity”.

“QVQLVESGGGLVQAGGSHRLSCAASGRIFEDYAMGWYRQAPGKERELVARISSGDSTNYADSVNGRFTLSRDNAKNTVYLQMNSLKPEDTAVYYCAAEGGVQEFDYWGQGTQVTVSS”: the “polyreactivity (PSR sort gate)” value was “low polyreactivity”.

In the case of “QVQLVESGGALVQAGGSLRLSCAASGYIFAYYAMGWYRQAPGKERELVATISYGGGSTYYADSVKGRFTISRDNAKNTVYLQMNSLKPEDTAVYYCAAVPWASDGYYSWGQGTQVTVSS”, the “polyreactivity (PSR sort gate)” value is “low polyreactivity”.

For “QVQLVESGGGLVQAGGSLRLSCAASGSIFYRYAMAWYRQAPGKERELVAAISSTGSPYYADSVKGRFTISRDNAKNTVYLQRNSLKPEDTAVYYCAARQGYRSYRRYDDWGQGTQVTVSS”, the “polyreactivity (PSR sort gate)” value is “high polyreactivity”.

With “QDQLVESGGGLVQAGGSLRLSCAASGFIFLNYTMGWYRQAPGKERELVAAISNGSDRTYYADSVKGRFTISRDKAKNTVYLQMNSLTPEDTAVYYCAKDRDFSSPPTESGFDYWGQGTQVTVSS”, the “polyreactivity (PSR sort gate)” value is on record as “low polyreactivity”.

With “QVQLVQSRGVLVQAGGSLRLSCAASGSIFKYNAMGWYRQAPGKERELVAAITYSGGSTYYADSVKGRFTISRDNAKNTVYLQMNSLKPEDTAVYYCNAYRRFSAFDYWGQGTQVTVSS”, the “polyreactivity (PSR sort gate)” value is “high polyreactivity”.

“QEQLQESGSGLVQAGGSLRLICAASRNIFQDWVMGWYRKEPGKEPELVAAISPGAITYYADSVKGRFTISRDNAKNTVYLQTNSLKPEDTAVYYCGAYYIVEYLHGYWGQGTRVTVSS”: the “polyreactivity (PSR sort gate)” value is on record as “low polyreactivity”.

On to “QVQLVESGGGLVQAGGRLRLSCAASGSTLYPNAMGWSRQAPGKDRELVAAISSGSSTYADSVKGRFTISRDNAKNTVYLQMNSLKPADTAVYYCNADAPIHYDYWGQGTQVTVSS”, for which the “polyreactivity (PSR sort gate)” value was “low polyreactivity”.

Take “QVQLVESGGGLVQAGGSLRLSCAASGSIFTVNAMGWYRQAPGKERELVAAISSGGSTHYADSVKGRFTISRDNAKNTVYLQMNSLKPEDTAVYYCAAEVSYYLNEFDYWGQGTQVTVSS”: the “polyreactivity (PSR sort gate)” value was “low polyreactivity”.

In the case of “QVQLVESGGGLVQAGGSVRLSCAASGNIFLRNAMGWYRQSPGKERELVAAIRRTGGSTYYADSVKGRFTISRDNAKTTVYLQMNSLKPEDTAVYYCAKRSYTGYEYWGQGTQVTVSS”, the “polyreactivity (PSR sort gate)” value is reported as “low polyreactivity”.

Turning to “QVQLVESGGGLVQAGGSLRLSCAASGSTFTWNDMGRYRQAPGKERELVAGISLSAGSTYYADSVKGRFTISRDNAKNTDYLQMNSLKPEDTAVYYCNADPGGPDTYEEHDYWGQGTQVTVSS”, the “polyreactivity (PSR sort gate)” value is on record as “low polyreactivity”.

Regarding “QVQLVESGGGLVQAGGSLRLSCAASGSTLLTYTMGWYRQAPGKERELVASITTSARSTYYADSVKGRFTISRDNAKNTVYLQMNSLKPEDTAVYYWGQGTQVTVSS”, the “polyreactivity (PSR sort gate)” value is on record as “low polyreactivity”.

Regarding “QVQLVESGGGLVQAGGSLRLSCAASGNIICGNAMGWYRQAPGKERELVAAISRRSGSTYYADSVKGRFTISRDNAKNTVYLQMNSLKPEDTAVYYCNTAGRVGTYDYWGQGTQVTVSS”, the “polyreactivity (PSR sort gate)” value is “high polyreactivity”.

For the sequence “QVQLVESGGGLVQPGGRLLLSSAASGSIFDYYVMGWYRLEPVKERELVAAISWSGASTYYADSVKGRFTISRDNAKNTVYVKMNSLKPEDTAVYYCAADYGVNTLIDYDYWGQGTQVTVSS”, the “polyreactivity (PSR sort gate)” value is “low polyreactivity”.

Take “QRQLVESGGGLVQAGGSLRLSCAASGFIFDSNAMGRYRQEPGKERELVAAFAARGGSTYYADSVKGRFTISRDYAKHTLYLQMNSLKPEETAVYNCNAVYIVGGYWGQGTQVTVSS”: the “polyreactivity (PSR sort gate)” value is on record as “high polyreactivity”.

As to “QVQLVESGGGLVQAGGSLRLSCAASGRIFIGNAMGWYRQAPGKERELVAAISKRGGSTYYADSVKGRFTISRDNAKNTVYLQMNSLKPEDTAVYYCNKESLYREFDYWGQGTQVTVSS”, the “polyreactivity (PSR sort gate)” value is listed as “low polyreactivity”.

Take “QVQLVESGGGLVQAGGSLRLSCAASGYIFPPYAMGWYRQAPGKERELVATITGIGGSTYYADSVKGRFTISRDNAKNTVYLQMNSLKPEDTAVYYCAARRDGYGTHYDYWGQGTQVTVSS”: the “polyreactivity (PSR sort gate)” value is “low polyreactivity”.

As to “QVQLVESGGGLVQAGGSLRLSCAASGSIFGPYAMGWYRPAPGKEREFVAAISGSGGSTYYEDSVKGRFTISRDNAKNTVYLQKNSLTPEDTAVYYCAARQAYVNRGRFRGATLDYWGQGTQVTVSS”, the “polyreactivity (PSR sort gate)” value is given as “high polyreactivity”.

As for “QVQLVESGGGLVQAGGSLRLSCAASGSIFVYNAMGWYRQAPGKERELVAAISSSGGSTYYADSVKGRFTISRDNAKNTVYLQMNSLKPEDTAVYYCAAEAVRKVPSYYSYAYYYWGQGTQVTVSS”, the “polyreactivity (PSR sort gate)” value is on record as “high polyreactivity”.
